Strand notation (5' to 3'): a small letter for the sugar, then the base; units joined by * are phosphorothioate-linked, units joined directly phosphodiester-linked; [ ] holds rarer units or linkages, { } end groups; capitals alone tell only the bases. m = 2'-O-methyl; r = 2'-OH (RNA)
B1: G000502: TTR Cyno specific sgRNA modified sequence, SEQ ID NO: 114; guide sequence of CR000689; cross homologous between mouse and cyno (nucleic acid)
guide: mA*mC*mA*rCrArArArUrArCrCrArGrUrCrCrArGrCrGrGrUrUrUrUrArGrAmGmCmUmAmGmAmAmAmUmAmGmCrArArGrUrUrArArArArUrArArGrGrCrUrArGrUrCrCrGrUrUrArUrCrAmAmCmUmUmGmAmAmAmAmAmGmUmGmGmCmAmCmCmGmAmGmUmCmGmGmUmGmCmU*mU*mU*mU
B2: G000486: TTR sgRNA modified sequence, Human, SEQ ID NO: 93; guide sequence of CR003339 (nucleic acid)
guide: mA*mC*mA*rCrArArArUrArCrCrArGrUrCrCrArGrCrArGrUrUrUrUrArGrAmGmCmUmAmGmAmAmAmUmAmGmCrArArGrUrUrArArArArUrArArGrGrCrUrArGrUrCrCrGrUrUrArUrCrAmAmCmUmUmGmAmAmAmAmAmGmUmGmGmCmAmCmCmGmAmGmUmCmGmGmUmGmCmU*mU*mU*mU
B3: G000480: TTR sgRNA modified sequence, Human, SEQ ID NO: 87; guide sequence of CR003353 (nucleic acid)
guide: mA*mA*mA*rGrGrCrUrGrCrUrGrArUrGrArCrArCrCrUrGrUrUrUrUrArGrAmGmCmUmAmGmAmAmAmUmAmGmCrArArGrUrUrArArArArUrArArGrGrCrUrArGrUrCrCrGrUrUrArUrCrAmAmCmUmUmGmAmAmAmAmAmGmUmGmGmCmAmCmCmGmAmGmUmCmGmGmUmGmCmU*mU*mU*mU
B4: G000499: TTR sgRNA modified sequence, Human, SEQ ID NO: 106; guide sequence of CR005303 (nucleic acid)
guide: mU*mG*mA*rArUrCrCrArArGrUrGrUrCrCrUrCrUrGrArGrUrUrUrUrArGrAmGmCmUmAmGmAmAmAmUmAmGmCrArArGrUrUrArArArArUrArArGrGrCrUrArGrUrCrCrGrUrUrArUrCrAmAmCmUmUmGmAmAmAmAmAmGmUmGmGmCmAmCmCmGmAmGmUmCmGmGmUmGmCmU*mU*mU*mU
B5: G000570: TTR sgRNA modified sequence, Human, SEQ ID NO: 111; guide sequence of CR003347 (nucleic acid)
guide: mC*mA*mU*rUrGrArUrGrGrCrArGrGrArCrUrGrCrCrUrGrUrUrUrUrArGrAmGmCmUmAmGmAmAmAmUmAmGmCrArArGrUrUrArArArArUrArArGrGrCrUrArGrUrCrCrGrUrUrArUrCrAmAmCmUmUmGmAmAmAmAmAmGmUmGmGmCmAmCmCmGmAmGmUmCmGmGmUmGmCmU*mU*mU*mU
B6: G000484: TTR sgRNA modified sequence, Human, SEQ ID NO: 91; guide sequence of CR003367 (nucleic acid)
guide: mA*mG*mA*rCrArCrCrArArArUrCrUrUrArCrUrGrGrArGrUrUrUrUrArGrAmGmCmUmAmGmAmAmAmUmAmGmCrArArGrUrUrArArArArUrArArGrGrCrUrArGrUrCrCrGrUrUrArUrCrAmAmCmUmUmGmAmAmAmAmAmGmUmGmGmCmAmCmCmGmAmGmUmCmGmGmUmGmCmU*mU*mU*mU
B7: G000567: TTR sgRNA modified sequence, Human, SEQ ID NO: 109; guide sequence of CR003352 (nucleic acid)
guide: mG*mA*mA*rArGrGrCrUrGrCrUrGrArUrGrArCrArCrCrGrUrUrUrUrArGrAmGmCmUmAmGmAmAmAmUmAmGmCrArArGrUrUrArArArArUrArArGrGrCrUrArGrUrCrCrGrUrUrArUrCrAmAmCmUmUmGmAmAmAmAmAmGmUmGmGmCmAmCmCmGmAmGmUmCmGmGmUmGmCmU*mU*mU*mU
B8: G000483: TTR sgRNA modified sequence, Human, SEQ ID NO: 90; guide sequence of CR005298 (nucleic acid)
guide: mU*mC*mC*rArCrUrCrArUrUrCrUrUrGrGrCrArGrGrArGrUrUrUrUrArGrAmGmCmUmAmGmAmAmAmUmAmGmCrArArGrUrUrArArArArUrArArGrGrCrUrArGrUrCrCrGrUrUrArUrCrAmAmCmUmUmGmAmAmAmAmAmGmUmGmGmCmAmCmCmGmAmGmUmCmGmGmUmGmCmU*mU*mU*mU
B9: G000482: TTR sgRNA modified sequence, Human, SEQ ID NO: 89; guide sequence of CR003365 (nucleic acid)
guide: mU*mG*mU*rArGrArArGrGrGrArUrArUrArCrArArArGrGrUrUrUrUrArGrAmGmCmUmAmGmAmAmAmUmAmGmCrArArGrUrUrArArArArUrArArGrGrCrUrArGrUrCrCrGrUrUrArUrCrAmAmCmUmUmGmAmAmAmAmAmGmUmGmGmCmAmCmCmGmAmGmUmCmGmGmUmGmCmU*mU*mU*mU
B10: G000488: TTR sgRNA modified sequence, Human, SEQ ID NO: 95; guide sequence of CR003346 (nucleic acid)
guide: mA*mA*mA*rGrUrUrCrUrArGrArUrGrCrUrGrUrCrCrGrGrUrUrUrUrArGrAmGmCmUmAmGmAmAmAmUmAmGmCrArArGrUrUrArArArArUrArArGrGrCrUrArGrUrCrCrGrUrUrArUrCrAmAmCmUmUmGmAmAmAmAmAmGmUmGmGmCmAmCmCmGmAmGmUmCmGmGmUmGmCmU*mU*mU*mU
B11: G000494: TTR sgRNA modified sequence, Human, SEQ ID NO: 101; guide sequence of CR003360 (nucleic acid)
guide: mG*mU*mG*rArGrUrCrUrGrGrArGrArGrCrUrGrCrArUrGrUrUrUrUrArGrAmGmCmUmAmGmAmAmAmUmAmGmCrArArGrUrUrArArArArUrArArGrGrCrUrArGrUrCrCrGrUrUrArUrCrAmAmCmUmUmGmAmAmAmAmAmGmUmGmGmCmAmCmCmGmAmGmUmCmGmGmUmGmCmU*mU*mU*mU

system: TTR mRNA; assay: TTR mRNA knockdown (quantitative PCR) in primary human hepatocytes treated with LNPs; type: cell-based; conditions: PHH; LNP dose 100 ng mRNA cargo; gRNA:mRNA 1:2; 96 h; single treatment; vs untreated control
Method: In one experiment, PHH were cultured and treated with LNPs comprising Cas9 mRNA (SEQ ID NO:1) and a gRNA of interest (See FIG. 29, Table 36), as described in Example 4. The LNPs were prepared using the cross-flow procedure described above and purified and concentrated using PD-10 columns and Amicon centrifugal filter units, respectively. The LNPs were formulated with an N:P ratio of 6.0 and contained Lipid A, Cholesterol, DSPC, and PEG2k-DMG in a 50:38:9:2 molar ratio, respectively. The LNPs comprised a gRNA:mRNA ratio of 1:2, and the cells were treated at a dose of 300 ng (with respect to the amount of mRNA cargo delivered).
(§1) Ninety-six (96) hours following LNP treatment (with biological triplicates for each condition), mRNA was purified from PHH cells using the Dynabeads mRNA DIRECT Kit (ThermoFisher Scientific) according to the manufacturer's protocol. Reverse Transcription (RT) was performed with Maxima reverse transcriptase (ThermoFisher Scientific) and a poly-dT primer. The resulting cDNA was purified with Ampure XP Beads (Agencourt). For Quantitative PCR, 2% of the purified cDNA was amplified with Taqman Fast Advanced Mastermix and 3 Taqman probe sets, TTR (Assay ID: Hs00174914_m1), GAPDH (Assay ID: Hs02786624_g1), and PPIB (Assay ID: Hs00168719_m1). The assays were run on the QuantStudio 7 Flex Real Time PCR System according to the manufacturer's instructions (Life Technologies). Relative expression of TTR mRNA was calculated by normalizing to the endogenous controls (GAPDH and PPIB) individually, and then averaged.
The groups in FIG. 29 and Table 36 are identified by the gRNA ID used in each LNP preparation.
In a separate experiment, TTR mRNA knockdown was evaluated following treatment with LNPs comprising G000480, G000486, and G000502. The LNPs were formulated and PHH were cultured and treated with the LNPs, each as described in the experiment above in this Example with the exception that the cells were treated at a dose of 100 ng (with respect to the amount of mRNA cargo delivered).
as §1, with “(single treatment” for “(with biological triplicates”, “the High Capacity cDNA Reverse Transcription Kit” for “Maxima reverse transcriptase”, “according to the manufacturer's instructions.” for “and a poly-dT primer. The resulting cDNA was purified with Ampure XP Beads (Agencourt).”, “the” for “the purified”
The groups in FIG. 30 and Table 37 are identified by the gRNA ID used in each LNP preparation.

Going from B1 to B2, the “Avg % Knockdown (TTR mRNA)” value rises from 90.94% to 97.36%.

B3 was tested, and the “Avg % Knockdown (TTR mRNA)” value was 95.61%.

same assay, conditions: PHH; LNP dose 300 ng mRNA cargo; gRNA:mRNA 1:2; 96 h; biological triplicates; vs untreated control

Compared with B4, B5 is higher in “Avg % Knockdown (TTR mRNA)” value: 91.38% for the first, 93.38% for the second.

Compared with B6, B7 is higher in “Avg % Knockdown (TTR mRNA)” value: 75.22% for the first, 90.89% for the second.

Going from B8 to B9, the “Avg % Knockdown (TTR mRNA)” value rises from 68.78% to 82.31%.

First: B10
Second: B11
The “Avg % Knockdown (TTR mRNA)” value of the first is higher: 92.77% for the first, 91.15% for the second.

B3 was tested, and the “Avg % Knockdown (TTR mRNA)” value was 95.19%.

system: TTR; assay: TTR editing dose response (EC50, maximum editing) in primary human hepatocytes treated with LNP formulated U-depleted Spy Cas9 mRNA and sgRNAs; type: cell-based; conditions: LNP formulated U-depleted Spy Cas9 mRNA and human specific sgRNAs, dose response
Method: Primary liver hepatocytes. Primary human liver hepatocytes (PHH) and primary cynomolgus liver hepatocytes (PCH) (Gibco) were cultured per the manufacturer's protocol (Invitrogen, protocol 11.28.2012). In brief, the cells were thawed and resuspended in hepatocyte thawing medium with supplements (Gibco, Cat. CM7000) followed by centrifugation at 100 g for 10 minutes for human and 80 g for 4 minutes for cyno. The supernatant was discarded and the pelleted cells resuspended in hepatocyte plating medium plus supplement pack (Invitrogen, Cat. A1217601 and CM3000). Cells were counted and plated on Bio-coat collagen I coated 96-well plates (ThermoFisher, Cat. 877272) at a density of 33,000 cells/well for human or 60,000 cells/well for cyno (or 65,000 cells/well when assaying effects on TTR protein, described further below). Plated cells were allowed to settle and adhere for 6 or 24 hours in a tissue culture incubator at 37° C. and 5% CO2 atmosphere. After incubation cells were checked for monolayer formation and media was replaced with hepatocyte culture medium with serum-free supplement pack (Invitrogen, Cat. A1217601 and CM4000).
For LNPs prepared using the cross-flow technique, the LNPs were formed by impinging jet mixing of the lipid in ethanol with two volumes of RNA solutions and one volume of water. The lipid in ethanol is mixed through a mixing cross with the two volumes of RNA solution. A fourth stream of water is mixed with the outlet stream of the cross through an inline tee. (See WO2016010840 FIG. 2.) The LNPs were held for 1 hour at room temperature, and further diluted with water (approximately 1:1 v/v). Diluted LNPs were concentrated using tangential flow filtration on a flat sheet cartridge (Sartorius, 100 kD MWCO) and then buffer exchanged by diafiltration into 50 mM Tris, 45 mM NaCl, 5% (w/v) sucrose, pH 7.5 (TSS). Alternatively, the final buffer exchange into TSS was completed with PD-10 desalting columns (GE). If required, formulations were concentrated by centrifugation with Amicon 100 kDa centrifugal filters (Millipore). The resulting mixture was then filtered using a 0.2 μm sterile filter. The final LNP was stored at 4° C. or −80° C. until further use.
Additional PCR was performed per the manufacturer's protocols (Illumina) to add chemistry for sequencing. The amplicons were sequenced on an Illumina MiSeq instrument. The reads were aligned to a reference genome (e.g., the human reference genome (hg38), the cynomologus reference genome (mf5), the rat reference genome (rn6), or the mouse reference genome (mm10)) after eliminating those having low quality scores. The resulting files containing the reads were mapped to the reference genome (BAM files), where reads that overlapped the target region of interest were selected and the number of wild type reads versus the number of reads which contain an insertion, substitution, or deletion was calculated.
The editing percentage (e.g., the “editing efficiency” or “percent editing” or “indel frequency”) is defined as the total number of sequence reads with insertions/deletions (“indels”) or substitutions over the total number of sequence reads, including wild type.
Lipid nanoparticle formulations of modified sgRNAs targeting human TTR and the cyno matched sgRNA sequences were tested on primary human hepatocytes and primary cyno hepatocytes in a dose response curve. Primary human and cyno hepatocytes were plated as described in Example 1. Both cell lines were incubated at 37° C., 5% CO2 for 24 hours prior to treatment with LNPs. The LNPs used in the experiments detailed in Tables 20-22 were prepared using the cross-flow procedure described above but purified using PD-10 columns (GE Healthcare Life Sciences) and concentrated using Amicon centrifugal filter units (Millipore Sigma), each containing the specified sgRNA and Cas9 mRNA (SEQ ID NO:1). […] LNPs were incubated in hepatocyte maintenance media containing 6% cyno serum at 37° C., 5% CO2 for 5 minutes. […]

First: B4
Second: B5
The “Max Editing” value of the first is lower: 96.31% for the first, 98.22% for the second.

First: B6
Second: B8
The “Max Editing” value of the first is higher: 94.14% for the first, 77.39% for the second.

Compared with B9, B10 is lower in “Max Editing” value: 97.02% for the first, 95.83% for the second.

First: B11
Second: B3
The “Max Editing” value of the first is lower: 75.70% for the first, 98.69% for the second.

same assay, conditions: LNP with U-depleted Spy Cas9 mRNA and cyno specific sgRNA, 8 point 3-fold dose response starting at 300 ng mRNA, 72 hours

In the case of B1, the “Max Editing” value is reported as 91.5%.

Source: patent US20230035659A1, “Compositions and Methods for TTR Gene Editing and Treating ATTR Amyloidosis Comprising a Corticosteroid or Use Thereof” (Intellia Therapeutics, Inc., priority 2019, published 2023)
